Experimental data: US11660961B2, “Host cells and methods for producing isopentenol from mevalonate” (The Regents of the University of California, priority 2015, dated 2023)
Residue numbers refer to the chain shown, from its start. Names may count otherwise. “And” between values parts separate entries of the source, which are not always exact repeats. Identical values can stand only once. Like-named read-outs stand apart in the source and are kept apart here.

Assays:
[1] = In vitro hydrolysis of IP to isopentenol (purified enzyme or cell lysates); assay type: biochemical; conditions: purified NudB or lysates of cells overexpressing the phosphatase
Method: To identify IP-hydrolyzing endogenous phosphatases, single gene knockout mutants of 36 phosphatases, of which substrates are mostly mono-phosphorylated metabolites, are retrieved from the Keio collection (Baba et al., 2006). 1 mL overnight cultures from each mutant are concentrated in 0.5 mL of 50 mM Tris-HCl (pH 8.0) buffer containing 1 mM DTT and ˜50 mg of glass beads (<100 μm, Sigma-Aldrich, USA). Cells are lysed by bead-beating for 2 min at 6.0 M/s (MP biomedicals Fast Prep, USA). After centrifugation of cell lysates at 20,000 g for 10 min, clear supernatant is used for assay reaction containing 0.5 mM isopentenyl monophosphate (IP). An equal volume of ethyl acetate is added to 100 μL of assay reaction after incubating overnight at 30° C., and isopentenol is extracted for 10 min by vigorous mixing.
Coding sequences of agp, aphA, and yqaB are amplified from BW25113 genome by PCR, and they are subsequently cloned to pBbE1a vector (Lee et al., 2011) for over-expression. Expression of these three genes are induced by addition of 0.5 mM IPTG to the cell cultures, and cell lysates of each sample are prepared with three biological replicates as described above for screening of the 36 mutants. 600 μL of assay reactions containing cell lysates, 1 mM DTT are prepared and the reaction is initiated by addition of 0.5 mM IP. […] Quantification of metabolites

[2] = tested on: E. coli BW25113; assay: Isopentenol production in E. coli; assay type: cell-based, Escherichia coli; conditions: for effect on in vivo isopentenol production: expressed in IPP-bypass pathway II in E. coli; for isopentenol productivity: pathway II, through 30 hours of batch fermentation
Method: E. coli BW25113 harboring two plasmids is used for isopentenol production. Seed cultures of all production strains are prepared by growing single colonies in LB medium containing 100 μg/mL ampicillin and 30 μg/mL chloramphenicol overnight at 37° C. with shaking at 200 rpm. The seed cultures are diluted in EZ-Rich defined medium (Teknova, USA) containing 10 g/L glucose (1%, w/v), 100 μg/mL ampicillin and 30 μg/mL chloramphenicol. The E. coli cell cultures are incubated in rotary shakers (200 rpm) at 37° C., and 0.5 mM IPTG is added to induce protein expression at OD600 of 0.6-0.8. To provide different levels of aeration, identical volumes of the cell culture are split into two flasks for incubation at 30° C. with shaking at either 200 rpm or 30 rpm.
For isopentenol quantification, 250 μL of cell culture is combined with 250 μL of ethyl acetate containing 1-butanol (30 mg/L) as an internal standard. This mixture of ethyl acetate and cell culture is vigorously shaken for 15 min and subsequently centrifuged at 13,000 g for 2 min to separate ethyl acetate from the aqueous phase. 100 μL of the ethyl acetate layer was diluted 5-fold, and 1 μL is analyzed by Agilent GCMS equipped with Cyclosil-B column (Agilent, USA) or Thermo GCFID equipped with DB-WAX column (Agilent, USA) for quantitation of isopentenol.

[3] = In vitro hydrolysis of IPP by purified Nudix hydrolase; assay type: biochemical; conditions: purified enzyme with IPP; up to 16 hours
Method: All metabolites are analyzed by liquid chromatography mass spectrometry (LC-MS; Agilent Technologies 1200 Series HPLC system and Agilent Technologies 6210 time-of-flight mass spectrometer) on a ZIC-HILIC column (150 mm length, 2.1-mm internal diameter, and 3.5-μm particle size). Standard chemicals (IPP and IP) are purchased from Sigma-Aldrich (USA). Metabolites are eluted isocratically with a mobile phase composition of 64% (v/v) acetonitrile containing 50 mM ammonium acetate with a flow rate of 0.15 mL/min. IPP and IP from E. coli extracts or enzyme assay are quantified via […] calibration curves ranging from 781.25 nM to 200 μM.

[4] = In vitro decarboxylase activity toward MVA; assay type: biochemical
Method: In vitro enzyme kinetics of decarboxylases are performed as described in previous studies (Barta et al., 2012 and Vannice et al., 2014). Briefly, enzymatic activity of decarboxylase is determined by a spectrophotometer assay quantifying ADP product formation, which is coupled to NADH oxidation by pyruvate kinase/lactate dehydrogenase. Assay mixtures are prepared in 50 mM HEPES-KOH (pH 7.5) containing 10 mM MgCl2, 400 μM phosphoenolpyruvate, 200 μM NADH, 4 mM ATP, and 25 U of pyruvate kinase/lactate dehydrogenase (Sigma, P0294). […]

[5] = In vitro enzyme kinetics of decarboxylases, ADP formation coupled to NADH oxidation; assay type: biochemical; conditions: for Km / kcat / % of WT (kcat/Km): substrate MVAP; for % of WT (kcat/Km): relative to PMDsc wild type
Method: A plasmid encoding a wild type mevalonate diphosphate decarboxylase from Saccharomyces cerevisiae (PMDsc) with N-terminal His-tag (pSKB3-PMDsc) is transformed into E. coli BL21 (DE3). A seed culture of BL21 (DE3) harboring pSKB3-PMDsc is prepared by inoculating a single colony and growing it overnight in Luria-Bertani (LB) medium containing kanamycin (50 μg/mL). The seed culture is diluted in Terrific Broth supplemented with 2% glycerol and 50 μg/mL kanamycin and incubated at 37° C. until the optical density of the culture at 600 nm (OD600) reached to 0.6-0.8. The cell culture is supplemented with isopropyl-β-D-thiogalactopyranoside (IPTG) to the final concentration of 0.5 mM and transferred to 18° C. for protein expression overnight. Cells are collected by centrifugation and re-suspended in 50 mM Tris-HCl (pH 7.5) buffer containing 300 mM NaCl and 10 mM imidazole. Cells are lysed by sonication and purified by HisPur Cobalt Resins (Thermo Scientific, USA). The purified PMDss is desalted in 10 mM Tris-HCl (pH 7.5) containing 50 mM NaCl, 0.5 mM dithiothreitol (DTT) and 20% glycerol, and flash-frozen in liquid nitrogen for storage at −80° C. All PIVD mutants, PMDsc, and NudB are purified as described above, except that NudB is desalted in 50 mM Tris-HCl (pH 8.0) buffer containing 0.1 mM EDTA, 1 mM DTT and 20% glycerol.
In vitro enzyme kinetics of decarboxylases are performed as described in previous studies (Barta et al., 2012 and Vannice et al., 2014). Briefly, enzymatic activity of decarboxylase is determined by a spectrophotometer assay quantifying ADP product formation, which is coupled to NADH oxidation by pyruvate kinase/lactate dehydrogenase. Assay mixtures are prepared in 50 mM HEPES-KOH (pH 7.5) containing 10 mM MgCl2, 400 μM phosphoenolpyruvate, 200 μM NADH, 4 mM ATP, and 25 U of pyruvate kinase/lactate dehydrogenase (Sigma, P0294). The reaction is initiated by addition of various concentrations of MVAP from 100 μM to 4,000 μM, and the reaction velocity is determined by monitoring OD at 340 nm in Spectramax 384plus microplate reader (Molecular Devices, USA).

[6] = substrate MVAPP, cited from earlier work
[7] = In vitro enzyme kinetics of decarboxylases, ADP formation coupled to NADH oxidation; assay type: biochemical; conditions: in vitro assay reactions using cell lysates

B1: aphA: E. coli-endogenous phosphatase found to hydrolyze IP to isopentenol (protein, UniProt P0AE22 26-237, looked up)
Class B acid phosphatase: SSPSPLNPGTNVARLAEQAPIHWVSVAQIENSLAGRPPMAVGFDIDDTVLFSSPGFWRGKKTFSPESEDYLKNPVFWEKMNNGWDEFSIPKEVARQLIDMHVRRGDAIFFVTGRSPTKTETVSKTLADNFHIPATNMNPVIFAGDKPGQNTKSQWLQDKNIRIFYGDSDNDITAARDVGARGIRILRASNSTYKPLPQAGAFGEEVIVNSEY
[1]
  hydrolysis of IP to isopentenol: significantly higher and faster hydrolysis activity on IP
[2]
  effect on in vivo isopentenol production: does not significantly increase the isopentenol production

B2: NudF: NudF of B. subtilis, identified as a IPP hydrolase (protein, UniProt P54570 1-185, looked up)
ADP-ribose pyrophosphatase: MKSLEEKTIAKEQIFSGKVIDLYVEDVELPNGKASKREIVKHPGAVAVLAVTDEGKIIMVKQFRKPLERTIVEIPAGKLEKGEEPEYTALRELEEETGYTAKKLTKITAFYTSPGFADEIVHVFLAEELSVLEEKRELDEDEFVEVMEVTLEDALKLVESREVYDAKTAYAIQYLQLKEALQAQK
[3]
  IPP hydrolysis product: hydrolyze IPP to IP, but not to isopentenol

B3: PMDsc WT: wild type mevalonate diphosphate decarboxylase from Saccharomyces cerevisiae (protein, UniProt P32377 1-396, looked up)
Diphosphomevalonate …: MTVYTASVTAPVNIATLKYWGKRDTKLNLPTNSSISVTLSQDDLRTLTSAATAPEFERDTLWLNGEPHSIDNERTQNCLRDLRQLRKEMESKDASLPTLSQWKLHIVSENNFPTAAGLASSAAGFAALVSAIAKLYQLPQSTSEISRIARKGSGSACRSLFGGYVAWEMGKAEDGHDSMAVQIADSSDWPQMKACVLVVSDIKKDVSSTQGMQLTVATSELFKERIEHVVPKRFEVMRKAIVEKDFATFAKETMMDSNSFHATCLDSFPPIFYMNDTSKRIISWCHTINQFYGETIVAYTFDAGPNAVLYYLAENESKLFAFIYKLFGSVPGWDKKFTTEQLEAFNHQFESSNFTARELDLELQKDVARVILTQVGSGPQETNESLIDAKTGLPKE
[4]
  activity on MVA: too low to determine the kinetic parameters
[5]; MVAP vs native substrate MVAPP
  Km toward MVAP, fold higher than reported Km toward MVAPP: ~8 fold
  kcat toward MVAP, fold lower than reported kcat toward MVAPP: about 35 fold
[5]
  Km: 990 µM
  kcat: 0.14 s⁻¹
  % of WT (kcat/Km): 100%
[6]; Krepkiy and Miziorko, 2004
  Km: 123 µM
[6]; literature
  kcat: 5.9 s⁻¹ and 5.4 s⁻¹
[2]
  isopentenol productivity: 15.9 mg/L/h

B4: S208E: PMDsc mutant, serine 208 mutated to glutamate (protein, UniProt P32377 1-396, looked up, variant S208E)
Diphosphomevalonate …: B3 Diphosphomevalonate … with S208E
[7]
  product formation from MVAP: do not produce detectible amount of product

B5: PMDsc R74H: PMDsc mutant R74H (protein)
chain: B3 Diphosphomevalonate … with R74H
[4]
  activity on MVA: do not show detectible hydrolysis activity on MVA
[5]
  Km: 770 µM
  kcat: 0.23 s⁻¹
  % of WT (kcat/Km): 220%
[5]; listed as R74H
  % of WT (kcat/Km): 220%
[2]
  isopentenol productivity: 20.4 mg/L/h

B6: PMDsc I145F: PMDsc mutant I145F (protein)
chain: B3 Diphosphomevalonate … with I145F
[4]
  activity on MVA: do not show detectible hydrolysis activity on MVA
[5]
  Km: 1360 µM
  kcat: 0.28 s⁻¹
  % of WT (kcat/Km): 147%
[5]; listed as I145F
  % of WT (kcat/Km): 147%
[2]
  effect on in vivo isopentenol production: reduces isopentenol titer and productivity

B7: S155E: PMDsc mutant, serine 155 mutated to glutamate (protein, UniProt P32377 1-396, looked up, variant S155E)
Diphosphomevalonate …: B3 Diphosphomevalonate … with S155E
[7]
  product formation from MVAP: do not produce detectible amount of product

B8: PMDsc T209D: PMDsc mutant, T209 mutated to negatively charged aspartate (protein)
chain: B3 Diphosphomevalonate … with T209D
[5]
  Km: 990 µM
  kcat: 0.13 s⁻¹
  % of WT (kcat/Km): 98%
[2]
  effect on in vivo isopentenol production: do not significantly change the in vivo production titer

B9: PMDsc K22M: PMDsc mutant, K22 mutated to neutral methionine (protein)
chain: B3 Diphosphomevalonate … with K22M
[5]
  Km: 2470 µM
  kcat: 0.09 s⁻¹
  % of WT (kcat/Km): 25%
[2]
  effect on in vivo isopentenol production: do not significantly change the in vivo production titer
